Among the data in US20220324978A1 are Kd, koff and kon values, retold here.

One may read the Kd as the constant that tells how readily two partners part at equilibrium. High values mean weaker binding, low ones tighter binding. A word on the koff: it is the rate constant with which the complex falls apart. The kon is the rate constant with which the complex forms.

T1: Histidine-tagged canine PD-1 protein (canine)
T1 sequence: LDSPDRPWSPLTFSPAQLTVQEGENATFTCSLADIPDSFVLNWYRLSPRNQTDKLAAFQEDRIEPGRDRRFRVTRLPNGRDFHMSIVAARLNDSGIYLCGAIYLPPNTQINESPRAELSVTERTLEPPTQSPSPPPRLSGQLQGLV

B1: 4A7-mHvKv-dIgG4 (antibody, V domains shown)
VH: EVQLVESGGDLVKPGGSLKLSCVASGFPFSNFGMSWVRQTPDKRLEWVATISSGSSYSYYSDSVKGRFTISRDNAKNTLFLQMNSLKSEDTAIFYCARGESRFAYWGQGTLVTVSA
VL: DVVITQDELSNPVTSGESVSISCRSNKSLLYEDGQTYLNWFLQRPGQSPQLLIYLMSTRASGVSDRFSGSGSGTDFTLEISEVRAEDVGVYYCQQLIEYPLTFGAGTKLELKR
B2: 1D8-H1K1-dIgG4 (antibody, V domains shown)
VH: EVQLVESGGDLVKPVGSLRLSCVASGFTFNNFGMSWVRQAPGKGLQWVATLSSGSSYTYYSDSVKGRFTISRDNAKNTLYLQMNSLRAEDTAMYYCTRGESRFAYWGQGTLVTVSA
VL: GVVITQDPLSLAVTPGELVTISCRSSKSLLYKDGKTYLNWYLQKPGQTPRLLIYLMSTRASGVSDRFSGSGSGTDFTLKISRVEAEDVGVYYCQQLIEYPLTFGAGTKVELK
B3: 1D8-H1K2-dIgG4 (antibody, V domains shown)
VH: EVQLVESGGDLVKPVGSLRLSCVASGFTFNNFGMSWVRQAPGKGLQWVATLSSGSSYTYYSDSVKGRFTISRDNAKNTLYLQMNSLRAEDTAMYYCTRGESRFAYWGQGTLVTVSA
VL: GVVITQDPLSLAVTPGELVTISCRSSKSLLYKDGKTYLNWFLQKPGQTPRLLIYLMSTRASGVSDRFSGSGSGTDFTLKISRVEAEDVGVYYCQQLIEYPLTFGAGTKVELK
B4: 1D8-H2K2-dIgG4 (antibody, V domains shown)
VH: EVQLVESGGDLVKPVGSLRLSCVASGFTFNNFGMSWVRQAPGKGLEWVATLSSGSSYTYYSDSVKGRFTISRDNAKNTLYLQMNSLRAEDTAMYYCTRGESRFAYWGQGTLVTVSA
VL: GVVITQDPLSLAVTPGELVTISCRSSKSLLYKDGKTYLNWFLQKPGQTPRLLIYLMSTRASGVSDRFSGSGSGTDFTLKISRVEAEDVGVYYCQQLIEYPLTFGAGTKVELK
B5: 1D8-H2K1-dIgG4 (antibody, V domains shown)
VH: EVQLVESGGDLVKPVGSLRLSCVASGFTFNNFGMSWVRQAPGKGLEWVATLSSGSSYTYYSDSVKGRFTISRDNAKNTLYLQMNSLRAEDTAMYYCTRGESRFAYWGQGTLVTVSA
VL: GVVITQDPLSLAVTPGELVTISCRSSKSLLYKDGKTYLNWYLQKPGQTPRLLIYLMSTRASGVSDRFSGSGSGTDFTLKISRVEAEDVGVYYCQQLIEYPLTFGAGTKVELK
B6: 1D8-mHvKv-dIgG4 (antibody, V domains shown)
VH: EVQLVESGGDLVKPGGSLKLSCAASGFTFNNFGMSWVRQNPDKRLEWVATLSSGSSYTYYSDSVKGRFTISRDNAKNTLYLQMNSLKSEDTAMYYCTRGESRFAYWGQGTLVTVSA
VL: GVVITQDELSNPVTSGESVSISCRSSKSLLYKDGKTYLNWFLQRPGQSPQLLIYLMSTRASGVSDRFSGSGSGTDFTLEISRVKAEDVGVYYCQQLIEYPLTFGAGTKLELKR
B7: 1B9-H1K1-IgG4 (antibody, V domains shown)
VH: EVQLVQSGAEVKKPGASVKVSCKTSGYTFTSFWMNWVRLAPGAGLDWIGRVDPYDSETHYNQKFKDRVILTVDTSTSTAYMELSSLRAGDIAVYYCATQFGFSWLAYWGQGTLVTVSA
VL: EIVMTQSPGSLAGSAGESVSINCKSSQSLLYSSNQKNYLAWYQQKPGESPKLLIYWASTRESGVPDRFSGSGSGTDFTLTINNLQAEDVGVYYCQQYYSNPYTFGQGTKLEIK
B8: 1B9-H1K2-IgG4 (antibody, V domains shown)
VH: EVQLVQSGAEVKKPGASVKVSCKTSGYTFTSFWMNWVRLAPGAGLDWIGRVDPYDSETHYNQKFKDRVILTVDTSTSTAYMELSSLRAGDIAVYYCATQFGFSWLAYWGQGTLVTVSA
VL: DIVMTQSPGSLAVSAGESVSINCKSSQSLLYSSNQKNYLAWYQQKPGESPKLLIYWASTRESGVPDRFSGSGSGTDFTLTINNVQAEDVGVYYCQQYYSNPYTFGQGTKLEIK
B9: 1B9-H2K2-IgG4 (antibody, V domains shown)
VH: EVQLVQSGAEVKKPGASVKVSCKASGYTFTSFWMNWVRLAPGAGLEWIGRVDPYDSETHYNQKFKDRAILTVDTSTSTAYMELSSLRAGDIAVYYCATQFGFSWLAYWGQGTLVTVSA
VL: DIVMTQSPGSLAVSAGESVSINCKSSQSLLYSSNQKNYLAWYQQKPGESPKLLIYWASTRESGVPDRFSGSGSGTDFTLTINNVQAEDVGVYYCQQYYSNPYTFGQGTKLEIK
B10: 1B9-H2K1-IgG4 (antibody, V domains shown)
VH: EVQLVQSGAEVKKPGASVKVSCKASGYTFTSFWMNWVRLAPGAGLEWIGRVDPYDSETHYNQKFKDRAILTVDTSTSTAYMELSSLRAGDIAVYYCATQFGFSWLAYWGQGTLVTVSA
VL: EIVMTQSPGSLAGSAGESVSINCKSSQSLLYSSNQKNYLAWYQQKPGESPKLLIYWASTRESGVPDRFSGSGSGTDFTLTINNLQAEDVGVYYCQQYYSNPYTFGQGTKLEIK

For this assay, the target named is T1, Histidine-tagged canine PD-1 protein (canine). Description: SPR (Biacore), dPD-1-His amine-coupled to CM5 chip, antibody injected, 1:1 Langmuir fit. Background: In SPR one partner is held on a chip, and binding of the other changes the refractive index at the surface.
The molecule B1 displayed a Kd of 0.29 nM, an off-rate constant (koff) of 0.000152 s⁻¹ and a kon of 525000 M⁻¹ s⁻¹.

Molecule B2 returned a Kd of 4.57 nM, a koff of 0.00309 s⁻¹ and a kon of 675000 M⁻¹ s⁻¹.

Turning to B3, the Kd is 4.5 nM, the off-rate constant (koff) was found to be 0.00248 s⁻¹ and the association rate constant (kon) was 550000 M⁻¹ s⁻¹.

Molecule B4 yielded a Kd of 4.34 nM, a koff of 0.00262 s⁻¹ and a kon of 604000 M⁻¹ s⁻¹.

For the molecule B5, the equilibrium dissociation constant (Kd) stood at 5.36 nM, the koff came out at 0.00348 s⁻¹ and the on-rate constant (kon) turned out to be 650000 M⁻¹ s⁻¹.

In the case of B6, the Kd worked out at 0.094 nM, the koff came out at 0.000135 s⁻¹ and the kon is 1.44e+06 M⁻¹ s⁻¹.

B7 showed a Kd of 1.07 nM, a koff of 0.000454 s⁻¹ and an association rate constant (kon) of 424000 M⁻¹ s⁻¹.

For the molecule B8, the Kd came out at 1.03 nM, the koff is 0.00049 s⁻¹ and the kon was 475000 M⁻¹ s⁻¹.

Regarding B9, the Kd worked out at 0.745 nM, the dissociation rate constant (koff) is 0.00043 s⁻¹ and the kon was 577000 M⁻¹ s⁻¹.

For the molecule B10, the dissociation constant Kd came out at 0.768 nM, the koff amounted to 0.000454 s⁻¹ and the kon amounted to 591000 M⁻¹ s⁻¹.
